B1: mouse RNF43 (domain or fragment)
chain: GFGHTGRVLAAAVESERSAEQKAVIRVIPLKMDPTGKLNLTLEGVFAGVAEVTPAEGKLMQSHPLYLCNASDDDNLEPGFISIVKLESPRRAPRPCLSLASKARMAGERGANAVLFDITEDRSAAEQLQQPLGLTKPVVLIWGSDAAKLMEFVYKNRKAYVWIELKEPPAGANY
B2: extracellular domain (ECD) of the human RNF43 protein, biotinylated (domain or fragment)
chain: GFGRTGLVLAAAVESERSAEQKAIIRVIPLKMDPTGKLNLTLEGVFAGVAEITPAEGKLMQSHPLYLCNASDDDNLEPGFISIVKLESPRRAPRPCLSLASKARMAGERGASAVLFDITEDRAAAEQLQQPLGLTWPVVLIWGNDAEKLMEFVYKNQKAHVRIELKEPPAWPDY
modifications: biotin (EZ-link-NHS-PEG4-biotin), 1–2 biotin molecules per protein

Test [1] deals with B2. The test can be described thus: SPR.
In test [2] the target is B2. The test can be described thus: SPR.
Test [3] has as its target T1, human RNF43 (in solution) (human).
T1 chain: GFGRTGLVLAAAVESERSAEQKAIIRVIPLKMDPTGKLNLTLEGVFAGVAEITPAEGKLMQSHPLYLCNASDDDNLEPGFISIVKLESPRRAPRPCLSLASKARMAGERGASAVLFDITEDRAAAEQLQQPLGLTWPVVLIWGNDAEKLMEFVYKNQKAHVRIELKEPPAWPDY
The test can be described thus: SPR; bio-GUR-1.6.12.2 immobilized.

Test [4] addresses B2. The test can be described thus: SPR; RNF43 immobilized. For orientation: In SPR one partner is held on a chip, and binding of the other changes the refractive index at the surface.
Another test deals with GUR-1.6.12.12. The test can be described thus: SPR.
The target of a further test is GUR-1.6.12.4. The test can be described thus: SPR.
Another test addresses GUR-1.6.12.16. The test can be described thus: SPR.
The target in the test “mouse RNF43” is B1. The test can be described thus: SPR.
The next test addresses T2, deglycosylated RNF43 (human, UniProt Q68DV7 24-197, biotin; deglycosylated with Deglycosylation Mix II (glycosylation sites N62 and N92)).
T2 chain: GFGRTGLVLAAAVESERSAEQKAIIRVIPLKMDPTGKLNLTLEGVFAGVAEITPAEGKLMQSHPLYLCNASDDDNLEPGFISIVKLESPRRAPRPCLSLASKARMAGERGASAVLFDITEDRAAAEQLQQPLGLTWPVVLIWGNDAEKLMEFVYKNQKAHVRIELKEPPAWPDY
The test is described as follows: SPR; deglycosylated RNF43.

A further test has as its target GUR-1. The test can be described thus: SPR.
In another test the target is NAz-GUR-1.6.12.2. The test can be described thus: SPR.

Ends that are not written are not given here. * marks the point of attachment. Biotin = O=C1N[C@H]2[C@H](CS[C@H]2CCCCC(=O)*)N1; azide = [N-]=[N+]=N*

Among the data in PMC12464775 (2025) are Kd values, retold here.

For azide-EQCTSTQDLCHDYSHVCCWPLDCRWAVKYQWFWDCIG (designed binder, also: hexamer via six-armed PEG linker (azide–alkyne cycloaddition)) [hex-GUR-1.6.12.2], the dissociation constant (Kd) (usually the free concentration of one partner at which half of the binding sites on the other are occupied at equilibrium, for simple one-to-one binding) in test [1] is 0.0002 nM.

Take QCVKKDELCIPYYLDCCWPLDCRWAVKYQWFWDCIG (designed binder) [GUR-1.6.12]: binding in [2] was put at a Kd of 56 nM.

In test [2], QCVKKDELCIPYYLDCCEPLECRWAVKYQWFWDCIG (designed binder) [GUR-1.6] yielded a Kd of 92 nM.

For Biotin-EQCTSTQDLCHDYSHVCCWPLDCRWAVKYQWFWDCIG (designed binder, cysteine pairing not given here) [N-terminal biotinylated GUR-1.6.12.2], the Kd in [3] came out at 46.9 nM; in test [4], 0.5 nM.

Regarding B1, the values for the Kd with GUR-1.6.12.12, with GUR-1.6.12.4 and with GUR-1.6.12.16 were 5.1 nM, 4.5 nM and 1.6 nM, respectively.

For the molecule EQCTSTQDLCHDYSHVCCWPLDCRWAVKYQWFWDCIG (designed binder) [GUR-1.6.12.2], the figures for the Kd (with mouse RNF43; in test [2]; with deglycosylated RNF43) were 2.1 nM, 1.1 nM and 2.8 nM, respectively.

azide-EQCTSTQDLCHDYSHVCCWPLDCRWAVKYQWFWDCIG (designed binder, also: dimer via bivalent PEG5 linker (azide–alkyne cycloaddition)) [di-GUR-1.6.12.2] showed a Kd in [1] of 0.06 nM.

B2: the Kd in the test with GUR-1.6.12.12 is 7.9 nM; with GUR-1.6.12.4 it was 3.9 nM; with GUR-1, 1220 nM; with GUR-1.6.12.16, 4 nM; with NAz-GUR-1.6.12.2, 2.9 nM.

Molecule HDYSHVCCWPLDCRWAVKYQWFWDCIG [truncated peptide GUR-1.6.12.2 H11-G37] registered a Kd in test [1] of 4.6 nM.
